B1: L-SIGN-4 (receptor)
chain: MSDSKEPRVQQLGLLEEDPTTSGIRLFPRDFQFQQIHGHKSSTGCLGHGALVLQLLSFMLLAGVLVAILVQVSKVPSSLSQEQSEQDAIYQNLTQLKAAVGELSEKSKLQEIYQELTRLKAAVGELPEKSKLQEIYQELTRLKAAVGELPEKSKLQEIYQELTQLKAAVGELPDQSKQQQIYQELTDLKTAFERLCRHCPKDWTFFQGNCYFMSNSQRNWHDSVTACQEVRAQLVVIKTAEEQNFLQLQTSRSNRFSWMGLSDLNQEGTWQWVDGSPLSPSFQRYWNSGEPNNSGNEDCAEFSGSGWNDNRCDVDNYWICKKPAACFRDE
notes: Expressed whole on the surface of stably transfected HeLa cells; Encodes repeats 1, 3, 4 and 7; also called L-SIGN isoform containing 4 tandem repeats; 4-repeat form of L-SIGN
B2: L-SIGN-5 (receptor)
chain: MSDSKEPRVQQLGLLEEDPTTSGIRLFPRDFQFQQIHGHKSSTGCLGHGALVLQLLSFMLLAGVLVAILVQVSKVPSSLSQEQSEQDAIYQNLTQLKAAVGELSEKSKLQEIYQELTQLKAAVGELPEKSKLQEIYQELTRLKAAVGELPEKSKLQEIYQELTRLKAAVGELPEKSKLQEIYQELTQLKAAVGELPDQSKQQQIYQELTDLKTAFERLCRHCPKDWTFFQGNCYFMSNSQRNWHDSVTACQEVRAQLVVIKTAEEQNFLQLQTSRSNRFSWMGLSDLNQEGTWQWVDGSPLSPSFQRYWNSGEPNNSGNEDCAEFSGSGWNDNRCDVDNYWICKKPAACFRDE
notes: Expressed whole on the surface of stably transfected HeLa cells; Encodes repeats 1-4 and 7; also called L-SIGN isoform containing 5 tandem repeats; 5-repeat form of L-SIGN
B3: L-SIGN-3 (receptor)
chain: MSDSKEPRVQQLGLLEEDPTTSGIRLFPRDFQFQQIHGHKSSTGCLGHGALVLQLLSFMLLAGVLVAILVQVSKVPSSLSQEQSEQDAIYQNLTQLKAAVGELSEKSKLQEIYQELTRLKAAVGELPEKSKLQEIYQELTQLKAAVGELPDQSKQQQIYQELTDLKTAFERLCRHCPKDWTFFQGNCYFMSNSQRNWHDSVTACQEVRAQLVVIKTAEEQNFLQLQTSRSNRFSWMGLSDLNQEGTWQWVDGSPLSPSFQRYWNSGEPNNSGNEDCAEFSGSGWNDNRCDVDNYWICKKPAACFRDE
notes: Expressed whole on the surface of stably transfected HeLa cells; Encodes tandem repeats 1, 3 and 7; also called L-SIGN isoform containing 3 tandem repeats; 3-repeat form of L-SIGN
B4: L-SIGN-9 (receptor)
chain: MSDSKEPRVQQLGLLEEDPTTSGIRLFPRDFQFQQIHGHKSSTGCLGHGALVLQLLSFMLLAGVLVAILVQVSKVPSSLSQEQSEQDAIYQNLTQLKAAVGELSEKSKLQEIYQELTQLKAAVGELPEKSKLQEIYQELTRLKAAVGELPEKSKLQEIYQELTRLKAAVGELPEKSKLQEIYQELTRLKAAVGELPEKSKLQEIYQELTRLKAAVGELPEKSKLQEIYQELTRLKAAVGELPEKSKLQEIYQELTELKAAVGELPEKSKLQEIYQELTQLKAAVGELPDQSKQQQIYQELTDLKTAFERLCRHCPKDWTFFQGNCYFMSNSQRNWHDSVTACQEVRAQLVVIKTAEEQNFLQLQTSRSNRFSWMGLSDLNQEGTWQWVDGSPLSPSFQRYWNSGEPNNSGNEDCAEFSGSGWNDNRCDVDNYWICKKPAACFRDE
notes: Expressed whole on the surface of stably transfected HeLa cells; also called L-SIGN isoform containing 9 tandem repeats; 9-repeat form of L-SIGN

This assay has as its target T1, HCV pseudovirus particles (HCVpp) (hepatitis C virus isolate H77, UniProt P27958 192-383; P27958 384-746).
T1 construct: A pseudovirus particle (HIV-1 NL4.3 luciferase core) that carries E1/E2 on its envelope; Putative splice acceptor sites changed by conservative mutagenesis; also called HIV-1 particles pseudotyped with HCV E1/E2 envelope glycoproteins
As to the kind of experiment: HCVpp supernatant on HeLa-SIGN transfectants, cell-bound p24 by ELISA.
On to B1, for which the binding result is recorded as “binds”.
The value for B2 was “binds”.
With B3, the binding result is on record as “binds”.
With B4, the binding result is given as “binds”.

The values are drawn from patent US20060292151A1 (published 2006).
